Source: patent US7790363B2, “Diagnostic test for vitamin B12” (Abbott Laboratories Inc., priority 2005, dated 2010)

Key:
[1] = Solubility of the protein expressed in E. coli; type: physicochemical; conditions: expression in E. coli from the named vector
Protocol: Using the Porcine IF cDNA14-1248 (SEQ ID NO: 5) as the template and the Forward Primer pIFMP-ForI (SEQ ID NO: 14) and Reverse Primer pIFMP-RevXhoI (SEQ ID NO: 15), the cDNA encoding the Porcine IF cDNA54-1254-Mature Peptide was amplified by PCR. The PCR profile was as follows: one initial denaturation step at a temperature of 95° C. for 5 minutes; then 33 cycles of the following conditions: a temperature of 95° C. for 30 seconds, then a temperature of 57° C. for 30 seconds, then a temperature of 72° C. for 1 minute; followed by a final extension at a temperature of 72° C. for 5 minutes. This PCR fragment was subcloned into pGEMEX-1 expression vector (purchased from Promega Corporation, Madison, Wis.).
To produce a soluble version of this protein, cDNA encoding the Porcine IF cDNA54-1254-Mature Peptide was amplified by PCR using IF cDNA14-1248 (SEQ ID NO: 5) as the template and the Forward primer pIF-PIC-MP-For EcoR1 (SEQ ID NO: 16) and the Reverse pIF-MP-pMAL-SaI1 Rev primer (SEQ ID NO: 17) and the following PCR conditions: one initial denaturation step at a temperature of 95° C. for 5 minutes; then 35 cycles of the following conditions: a temperature of 95° C. for 30 seconds, then a temperature of 56° C. for 30 seconds, then a temperature of 72° C. for 1 minute; followed by a final extension at a temperature of 72° C. for 5 minutes. […]

[2] = "ARCHITECT" Intrinsic Factor Binding Capacity Assay (one-step competitive assay); conditions: read from vitamin B12 calibration curve, converted to binding capacity using an equation
Protocol: The vitamin B12-binding capacity of the recombinant porcine Intrinsic Factor was measured using in “ARCHITECT” Intrinsic Factor Binding Capacity Assay. The assay is a one-step competitive assay where intrinsic factor from the test sample competes with intrinsic factor coated onto microparticles for the vitamin B12-acridinium tracer. Thus, signal in the assay is inversely proportional to the concentration of intrinsic factor in the test sample. The results are read from a vitamin B12 calibration curve, and the vitamin B12 concentration results are converted to binding capacity using an equation. The Binding Capacity Value for the recombinant porcine intrinsic factor was determined to be 904 ng/ml.

[3] = vitamin B12-Alkaline Phosphatase conjugate blot; type: binding; conditions: E. coli lysate, SDS-PAGE, blotted onto nitrocellulose, probed with vitamin B12-alkaline phosphatase conjugate
Excerpt: FIG. 2 illustrates the binding of recombinant porcine intrinsic factor to vitamin B12. The E. coli cells were lysed and the proteins were resolved using SDS-PAGE and blotted onto a nitrocellulose membrane. The membrane was probed with vitamin B12 conjugate to alkaline phosphatase. […] Lane 1 contains molecular weight markers (marked in kilodaltons). Lanes 2, 3, 4, and 5 represent cells from various clones expressing recombinant porcine intrinsic factor. Lane 6 contains the native porcine intrinsic factor (purified from hog (Sus scrofa) gut).
(§1) The E. coli lysate containing the expressed recombinant porcine intrinsic factor was run on an SDS-PAGE (Polyacrylamide Gel Electrophoresis), and the gel was blotted onto nitrocellulose. This blot was probed with vitamin B12-alkaline phosphatase conjugate and developed using an appropriate substrate. […] Referring now to FIG. 2, Lane 1 contains molecular weight markers (marked in kilodaltons). Lanes 2, 3, 4, and 5 represent cells from various clones expressing recombinant porcine intrinsic factor. Lane 6 contains the native porcine intrinsic factor (purified from hog (Sus scrofa) gut).

[4] = tested on: anti-intrinsic factor antibody; test: Western blotting with anti-intrinsic factor antibody; type: binding; conditions: E. coli lysate, SDS-PAGE, blotted onto nitrocellulose, probed with anti-intrinsic factor antibody
Excerpt: FIG. 3 illustrates the binding of recombinant porcine intrinsic factor to anti-intrinsic factor antibody by Western blotting. The E. coli cells were lysed and the proteins were resolved using SDS-PAGE and blotted onto a nitrocellulose membrane. The membrane was then probed with anti-intrinsic factor antibody. Lane 1 contains molecular weight markers (marked in kilodaltons). Lanes 2, 3, 4, and 5 represent cells from various clones expressing recombinant porcine intrinsic factor. Lane 6 contains the native porcine intrinsic factor (purified from hog (Sus scrofa) gut).
as §1, with “E. Coli” for “E. coli”, “with anti-intrinsic factor antibody” for “with vitamin B12-alkaline phosphatase conjugate”, “FIG. 3,” for “FIG. 2,”

Binding Capacity Value (vitamin B12-binding capacity) [2] | binding to vitamin B12 (band developed color) [3] | Molecule | solubility of the expressed protein [1] | binding to anti-intrinsic factor antibody (band developed color) [4]
– | – | Porcine IF cDNA54-1254-Mature Peptide: Porcine intrinsic factor mature peptide, 399 amino acids, SEQ ID NO: 9, expressed from pGEMEX-1 expression vector (protein, S. scrofa) STQTRSSCSVPSAEQPLVNGIQVLMEQSVTSSAFPNPSILIAMNLAGAYNTEAQELLTYKLMATNTSDLTTGQLALTIMALTSSCRDPGNRIAILQGQMENWAPPSLDTHASTFYEPSLGILTLCQNNPEKTLPLAARFAKTLLANSSPFNMDTGAMATLALTCMYNKIPVGSEEGYRALFSQVLRNTVENISMRIQDNGIIGNIYSTGLAMQALSVTPEQPNKEWDCQKTMDTVLTEIKEGKFHNPMAIAQILPSLKGKTYLDVPHVSCSPGHEVPPTLPNHPSPVPTPAPNITVIYTINNQLRGVELLFNETISVSVKRGSVLLIVLEEAQRKNPKFKFETTMTSWGPVVSSINNIAENVNHRTYWQFLSGQTPLNEGVADYIPFNHEHITANFTQY | insoluble and formed inclusion bodies | –
904 ng/mL | bound to vitamin B12 | recombinant porcine intrinsic factor: Recombinant porcine intrinsic factor produced in E. coli from the pMAL-IF or pET32a-IF vector, affinity purified (protein, S. scrofa) YNLKAQKLLTYKLMATNTSDLTTGQLALTIMALTSSCRDPGNRIAILQGQMENWAPPSLDTHASTFYEPSLGILTLCQNNPEKTLPLAARFAKTLLANSSPFNMDTGAMATLALTCMYNKIPVGSEEGYRALFSQVLRNTVENISMRIQDNGIIGNIYSTGLAMQALSVTPEQPNKEWDCQKTMDTVLTEIKEGKFHNPMAIAQILPSLKGKTYLDVPHVSCSPGHEVPPTLPNHPSPVPTPAPNITVIYTINNQLRGVELLFNETISVSVKRGSVLLIVLEEAQRKNPKFKFETTMTSWGPVVSSINNIAENVNHRTYWQFLSGQTPLNEGVADYIPFNHEHITANFTQY | – | recognized by the antibody
